Data reported in patent US20230038638A1, “COMPLEMENT FACTOR I-RELATED COMPOSITIONS AND METHODS” (published 2023).
Positions count from the first letter of the chain named. Each block holds one molecule with its values, some of them ahead of it.

Columns and labels:
human C4b (human) [1] = target: T1, human C4b (human) (UniProt P0C0L4)
T1 sequence: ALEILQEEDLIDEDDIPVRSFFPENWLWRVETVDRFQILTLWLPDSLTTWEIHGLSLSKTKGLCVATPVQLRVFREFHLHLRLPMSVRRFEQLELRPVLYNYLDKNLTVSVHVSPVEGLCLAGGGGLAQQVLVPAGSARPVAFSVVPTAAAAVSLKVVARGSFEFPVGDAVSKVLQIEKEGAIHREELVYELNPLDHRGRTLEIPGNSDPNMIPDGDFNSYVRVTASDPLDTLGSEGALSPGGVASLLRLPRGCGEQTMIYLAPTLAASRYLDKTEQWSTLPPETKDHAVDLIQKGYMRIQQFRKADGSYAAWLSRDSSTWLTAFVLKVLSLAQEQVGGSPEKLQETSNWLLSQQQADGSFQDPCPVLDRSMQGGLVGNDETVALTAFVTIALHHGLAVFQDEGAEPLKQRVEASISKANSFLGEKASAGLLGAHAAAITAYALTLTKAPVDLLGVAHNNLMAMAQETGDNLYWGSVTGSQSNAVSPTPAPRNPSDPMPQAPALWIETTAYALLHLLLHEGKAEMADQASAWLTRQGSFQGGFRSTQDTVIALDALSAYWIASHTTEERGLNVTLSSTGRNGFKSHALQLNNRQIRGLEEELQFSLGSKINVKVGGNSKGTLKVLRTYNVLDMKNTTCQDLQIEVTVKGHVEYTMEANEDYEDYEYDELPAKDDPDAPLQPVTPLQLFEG

human C4b (human) [2] = target: T2, human C4b (human) (UniProt P0C0L5)
T2 sequence: T1 sequence with A151T, D317G, P364L, C365S, L368I, D369H, N420S, V451A, L454R, S530A

[3] = target: soluble human C3b (human) (UniProt P01024)
human C4b (human) [4] = target: T1, human C4b (human); remark: listed apart in the source

- C4c EC50 (human C4b (human) [1]): 71.9 nM
Molecule: CFI-HSA variant Y408L; N531G (enzyme)

- iC3b Screen Ref Fold (fold of reference) [3]: 0.67
- C4b Screen Ref Fold (fold of reference) (human C4b (human) [4]): 1.81
Molecule: CFI-HSA variant T346H (enzyme)

- iC3b Screen Ref Fold (fold of CFI-HSA wild type) [3]: 1.24
- C4b Screen Ref Fold (fold of CFI-HSA wild type) (human C4b (human) [4]): 6.79
Molecule: CFI-HSA Y408L; N531G; E461Q; R462K (enzyme)

- iC3b Screen Ref Fold (fold of reference) [3]: 0.13
- C4b Screen Ref Fold (fold of reference) (human C4b (human) [4]): -0.08
Molecule: CFI-HSA variant A405S; G406R; Y408L; Q409D (enzyme)

- iC3b Screen Ref Fold (fold of reference) [3]: 0.56
- C4b Screen Ref Fold (fold of reference) (human C4b (human) [4]): 0.74
Molecule: CFI-HSA variant G344R (enzyme)

- iC3b Screen Ref Fold (fold of reference) [3]: -0.02
- C4b Screen Ref Fold (fold of reference) (human C4b (human) [4]): 0.12
Molecule: CFI-HSA variant W381G; P384G; V390G (enzyme)

- iC3b Screen Ref Fold (fold of reference) [3]: 0.96
- C4b Screen Ref Fold (fold of reference) (human C4b (human) [4]): 0.19
Molecule: CFI-HSA variant E530K (enzyme)

- iC3b Screen Ref Fold (fold of CFI-HSA wild type) [3]: 0.48
- C4b Screen Ref Fold (fold of CFI-HSA wild type) (human C4b (human) [4]): 0.31
Molecule: CFI-HSA Y408L; R462K (enzyme)

- iC3b Screen Ref Fold (fold of CFI-HSA wild type) [3]: 1.45
- C4b Screen Ref Fold (fold of CFI-HSA wild type) (human C4b (human) [4]): 6.13
Molecule: CFI-HSA N531G; E461Q (enzyme)

- iC3b Screen Ref Fold (fold of CFI-HSA wild type) [3]: -0.02
- C4b Screen Ref Fold (fold of CFI-HSA wild type) (human C4b (human) [4]): 0.1
Molecule: CFI-HSA variant E457G; S507A (enzyme)

- iC3b Screen Ref Fold (fold of CFI-HSA wild type) [3]: 0.03
- C4b Screen Ref Fold (fold of CFI-HSA wild type) (human C4b (human) [4]): -0.08
B1: WT mouse CFI; His tag (enzyme)
chain: RSPSASDLPQEELVDQKCLLQKYTHRSCNKVFCQPWQRCIEGTCICKLPYQCPRAGTPVCAMNGRSYPTYCHQKSFECLHPEIKFSHNGTCAAEGKFNVSLIYGRTKTEGLVQVKLVDQDERMFICKNSWSMAEANVACVDLGFPLGVRDIQGSFNISGNLHINDTECLHVHCRGVETSLAECAFTKRRTELSNGLAGVVCYKQDADFPTSLSFQCVNGKHIPQEKACNGVNDCGDQSDELCCKGCRGNASLCKSGVCIPDQYKCNGEVDCITGEDESRCEEDRQQNIPKGLARSAQGEAEIETEETEMLTPGMDNERKRIKSLLPKLSCGVKRNTHTRRKRVIGGKPANVGDYPWQVAIKDGQRITCGGIYIGGCWILTAAHCVRPSRAHSYQVWTALLDWLKPNSQLGIQTVKRVIVHEKYNGATFQNDIALIEMKMHTGKKECELPNSVPACVPWSPYLFQPNDRCIISGWGRGKDNQKVYSLRWGEVDLIGNCSQFYPDRYYEKEMQCAGTRDGSIDACKGDSGGPLVCEDINNVTYVWGIVSWGENCGKPEFPGVYTRVANYFDWISYHVGRSLVSQHNV

Continued, molecule first:

Molecule: CFI-HSA variant K504E (enzyme)
- C4b Screen Ref Fold (fold vs CFI-HSA wild type) (human C4b (human) [2]): 0.24
- iC3b Screen Ref Fold (fold of reference) [3]: 0.12
- iC3b Screen Ref Fold (fold vs CFI-HSA wild type) [3]: 0.88
- C4b Screen Ref Fold (fold of reference) (human C4b (human) [4]): 0.24

Molecule: CFI-HSA variant P384G (enzyme)
- C4b Screen Ref Fold (fold vs CFI-HSA wild type) (human C4b (human) [2]): 0.04
- iC3b Screen Ref Fold (fold of reference) [3]: 0.01
- iC3b Screen Ref Fold (fold vs CFI-HSA wild type) [3]: 0.03
- C4b Screen Ref Fold (fold of reference) (human C4b (human) [4]): 0.1

Molecule: CFI-HSA D425F (enzyme)
- iC3b Screen Ref Fold (fold of CFI-HSA wild type) [3]: 1.91
- C4b Screen Ref Fold (fold of CFI-HSA wild type) (human C4b (human) [4]): 1.6

Molecule: CFI-HSA variant G344K (enzyme)
- iC3b Screen Ref Fold (fold of reference) [3]: 0.16
- C4b Screen Ref Fold (fold of reference) (human C4b (human) [4]): 0.36

Molecule: CFI-HSA T346K; Y408L; N531G (enzyme)
- iC3b Screen Ref Fold (fold of CFI-HSA wild type) [3]: 1.1
- C4b Screen Ref Fold (fold of CFI-HSA wild type) (human C4b (human) [4]): 4.81

Molecule: CFI-HSA R462K; F464Y (enzyme)
- iC3b Screen Ref Fold (fold of CFI-HSA wild type) [3]: 0.11
- C4b Screen Ref Fold (fold of CFI-HSA wild type) (human C4b (human) [4]): 0.83

Molecule: CFI-HSA variant K340G; I345G (enzyme)
- iC3b Screen Ref Fold (fold of reference) [3]: 0
- C4b Screen Ref Fold (fold of reference) (human C4b (human) [4]): 0.14

Molecule: CFI-HSA D425M (enzyme)
- iC3b Screen Ref Fold (fold of CFI-HSA wild type) [3]: 0.91
- C4b Screen Ref Fold (fold of CFI-HSA wild type) (human C4b (human) [4]): 2.18

Molecule: CFI-HSA K534I (enzyme)
- iC3b Screen Ref Fold (fold of CFI-HSA wild type) [3]: 0.83
- C4b Screen Ref Fold (fold of CFI-HSA wild type) (human C4b (human) [4]): 3.03

Molecule: CFI-HSA P535H (enzyme)
- iC3b Screen Ref Fold (fold of CFI-HSA wild type) [3]: 0.42
- C4b Screen Ref Fold (fold of CFI-HSA wild type) (human C4b (human) [4]): 0.22

Molecule: CFI-HSA Y408L; E457G; F464Y (enzyme)
- iC3b Screen Ref Fold (fold of CFI-HSA wild type) [3]: 1.13
- C4b Screen Ref Fold (fold of CFI-HSA wild type) (human C4b (human) [4]): 5.57

Molecule: CFI-HSA variant D425K; E530F; F537K; K504R; P558S (enzyme)
- iC3b Screen Ref Fold (fold of CFI-HSA wild type) [3]: 0.09
- C4b Screen Ref Fold (fold of CFI-HSA wild type) (human C4b (human) [4]): 0.16

Molecule: CFI-HSA P535E (enzyme)
- iC3b Screen Ref Fold (fold of CFI-HSA wild type) [3]: 0.24
- C4b Screen Ref Fold (fold of CFI-HSA wild type) (human C4b (human) [4]): 0.45

Molecule: CFI-HSA F537Y (enzyme)
- iC3b Screen Ref Fold (fold of CFI-HSA wild type) [3]: 1.03
- C4b Screen Ref Fold (fold of CFI-HSA wild type) (human C4b (human) [4]): 1.64

Molecule: CFI-HSA variant D425K; Y408M; E530F; P558S (enzyme)
- iC3b Screen Ref Fold (fold of CFI-HSA wild type) [3]: 1.53
- C4b Screen Ref Fold (fold of CFI-HSA wild type) (human C4b (human) [4]): 0.07

Molecule: CFI-HSA E457G; E461Q; R462K (enzyme)
- iC3b Screen Ref Fold (fold of CFI-HSA wild type) [3]: 1.54
- C4b Screen Ref Fold (fold of CFI-HSA wild type) (human C4b (human) [4]): 6.74

Molecule: CFI-HSA variant K504R; P558S (enzyme)
- iC3b Screen Ref Fold (fold of CFI-HSA wild type) [3]: 1.19
- C4b Screen Ref Fold (fold of CFI-HSA wild type) (human C4b (human) [4]): 0.17

Molecule: CFI-HSA variant Y403F; D425K; E457G; N531G (enzyme)
- iC3b Screen Ref Fold (fold of CFI-HSA wild type) [3]: 0.22
- C4b Screen Ref Fold (fold of CFI-HSA wild type) (human C4b (human) [4]): 3.85

Molecule: CFI-HSA H362T; R456I; S343R (enzyme)
- iC3b Screen Ref Fold (fold of CFI-HSA wild type) [3]: -0.01
- C4b Screen Ref Fold (fold of CFI-HSA wild type) (human C4b (human) [4]): 0.08
